# Experimental data published in WO2025026282A1 (dated 2025).
# T1: human CD32 alpha (human, UniProt P12318 34-217, limits assumed)
# T1 construct: also called FcgammaRII
# T1 sequence (looked up): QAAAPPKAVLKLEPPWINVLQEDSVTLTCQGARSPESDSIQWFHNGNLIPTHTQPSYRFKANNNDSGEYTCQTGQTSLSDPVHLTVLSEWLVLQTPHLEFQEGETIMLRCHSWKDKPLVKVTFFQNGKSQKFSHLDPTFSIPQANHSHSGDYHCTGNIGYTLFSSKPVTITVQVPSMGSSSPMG
# B1: 12A39 (2:1:1 asymmetric tri-specific antibody, Type E structure, CEA x CD3 x PD-L1) (other)
# chain 1: QAVVTQEPSLTVSPGGTVTLTCRSSTGAVTTSNYANWVQQKPGQAPRGLIGGTNKRAPWTPARFSGSLLGGKAALTLSGAQAEDEADYYCALWYSNLWVFGGGTKLTVLRTVAAQVQLVQSGAEVKKPGSSVKVSCKTSGDTFSSYAISWVRDAPGQCLEWMGGIIPIFGKAHYAQKFQGRVTITADESTSTAYMELSSLRSEDTAVYFCARKFHFVSGSPFGMDVWGQGTTVTVSSASEPKSSDKTHTCPPCPAPPVAGPSVFLFPPKPKDTLMISRTPEVTCVVVDVSQEDPEVKFNWYVDGVEVHNAKTKPREEQFNSTYRVVSVLTVLHQDWLNGKEYKCKVSNKGLPSSIEKTISKAKGQPREPQVYTLPPSRDELTKNQVSLWCLVKGFYPSDIAVEWESNGQPENNYKTTPPVLDSDGSFFLYSKLTVDKSRWQQGNVFSCSVMHEALHNHYTQKSLSLSP
# chain 2: EVQLVESGGGLVQPGGSLRLSCAASGFTFTDYYMNWVRQAPGKALEWLGFIRNKVNGDTTEYAASVKGRFTISRDDSKNSLYLQMNSLKTEDTAVYYCARDKGIAYYFDYWGQGTLVTVSSASTKGPSVFPLAPSSKSTSGGTAALGCLVKDYFPEPVTVSWNSGALTSGVHTFPAVLQSSGLYSLSSVVTVPSSSLGTQTYICNVNHKPSNTKVDKKVEPKSCDGGGGSGGGGSEIVLTQSPATLSLSPGERATLSCRASQSVSSYLAWYQKKPGQAPRLLIYDASNRATGIPARFSGSGSGTDFTLTISSLEPEDFAVYYCQQRSNWPTFGCGTKVEIKRTVAAEVQLVESGGGLVQPGGSLRLSCAASGFTFSTYAMNWVRQAPGKGLEWVGRIRSKYNNYATYYADSVKGRFTISRDDSKNSLYLQMNSLRAEDTAVYYCVRHGNFGTSYVSWFAYWGQGTLVTVSS
# heavy: EVQLVESGGGLVQPGGSLRLSCAASGFTFTDYYMNWVRQAPGKALEWLGFIRNKVNGDTTEYAASVKGRFTISRDDSKNSLYLQMNSLKTEDTAVYYCARDKGIAYYFDYWGQGTLVTVSSASTKGPSVFPLAPSSKSTSGGTAALGCLVKDYFPEPVTVSWNSGALTSGVHTFPAVLQSSGLYSLSSVVTVPSSSLGTQTYICNVNHKPSNTKVDKKVEPKSCDKTHTCPPCPAPPVAGPSVFLFPPKPKDTLMISRTPEVTCVVVDVSQEDPEVKFNWYVDGVEVHNAKTKPREEQFNSTYRVVSVLTVLHQDWLNGKEYKCKVSNKGLPSSIEKTISKAKGQPREPQVYTLPPSRDELTKNQVSLSCAVKGFYPSDIAVEWESNGQPENNYKTTPPVLDSDGSFFLVSKLTVDKSRWQQGNVFSCSVMHEALHNRFTQKSLSLSP
# light: EIVLTQSPATLSASPGERATLSCRASQSVSYIHWYQQKPGQSPRPWIHGTSNLATGVPARFSGSGSGTDFTLTISSLEPEDAAVYYCQQWSSNLSTFGGGTKVEIKRTVAAPSVFIFPPSDEQLKSGTASVVCLLNNFYPREAKVQWKVDNALQSGNSQESVTEQDSKDSTYSLSSTLTLSKADYEKHKVYACEVTHQGLSSPVTKSFNRGEC
# notes: Tri-specific antibody; also called polypeptide complex 12A39
# Tests used:
# human CD32 alpha = biological target: T1, human CD32 alpha; test: BLI (Octet), human CD32 alpha
# human CD64 = human CD64 (human, UniProt P12314 16-292, limits assumed); test: BLI (Octet), human CD64
# Chain of human CD64 (P12314 16-292 limits assumed): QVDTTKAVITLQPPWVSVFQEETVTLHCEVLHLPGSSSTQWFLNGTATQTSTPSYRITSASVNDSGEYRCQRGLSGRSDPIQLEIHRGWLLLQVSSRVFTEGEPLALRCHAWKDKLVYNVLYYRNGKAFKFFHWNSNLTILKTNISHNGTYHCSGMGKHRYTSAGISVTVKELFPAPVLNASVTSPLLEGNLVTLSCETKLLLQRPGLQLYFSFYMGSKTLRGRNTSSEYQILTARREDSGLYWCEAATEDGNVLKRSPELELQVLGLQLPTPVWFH
binder,measurement,setting,value
B1,Kd,human CD32 alpha,~527 nM
same,binding result,human CD64,binds
